Biological target: D-allulose 3-epimerase (DaeB) from Bacillus sp. KCTC 13219 (Bacillus sp. KCTC 13219)
Experiment: SEC; Superdex 200 Increase 10/300 GL, 50 mM Tris pH 8.0, 300 mM NaCl, 0.5 mL/min; calibrated with ribonuclease A, ovalbumin, conalbumin and aldolase; self-association of purified DaeB

- stoichiometry N: 2
Substance: D-allulose 3-epimerase (DaeB) from Bacillus sp. KCTC 13219 (enzyme)
